Experimental data taken from US7098310B1, “Heterodimers of retinoid X receptors (RXRS) and other steroid hormone receptors” (Ligand Pharmaceuticals, priority 1991, dated 2006).

Target: T1, estrogen receptor (ER) (UniProt P03372 1-595, limits assumed)
T1 construct: In vitro translated; 35S-labelled in the column experiment
T1 sequence (looked up): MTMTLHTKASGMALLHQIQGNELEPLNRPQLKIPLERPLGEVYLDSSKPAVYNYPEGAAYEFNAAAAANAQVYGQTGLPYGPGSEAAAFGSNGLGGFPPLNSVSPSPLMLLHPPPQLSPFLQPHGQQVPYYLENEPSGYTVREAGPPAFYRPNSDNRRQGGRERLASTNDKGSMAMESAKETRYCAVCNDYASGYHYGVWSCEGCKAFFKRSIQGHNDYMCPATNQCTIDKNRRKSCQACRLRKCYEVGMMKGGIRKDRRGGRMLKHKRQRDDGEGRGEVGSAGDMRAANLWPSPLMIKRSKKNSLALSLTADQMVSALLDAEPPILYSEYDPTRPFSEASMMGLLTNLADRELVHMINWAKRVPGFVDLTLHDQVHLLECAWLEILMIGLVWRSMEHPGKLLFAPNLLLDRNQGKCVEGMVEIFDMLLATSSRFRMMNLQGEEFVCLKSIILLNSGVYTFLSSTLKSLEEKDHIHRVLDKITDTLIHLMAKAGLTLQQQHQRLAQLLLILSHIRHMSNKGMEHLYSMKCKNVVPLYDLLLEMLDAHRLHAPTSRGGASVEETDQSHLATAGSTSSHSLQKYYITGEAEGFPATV
Test: glutathione sepharose affinity column, 35S-labelled ER, no DNA

- binding result: no binding
B1: glutathione S-transferase-RARγ fusion protein (bacterially expressed FLAG-RARγ fusion protein) (other)
chain: RYKDDDDKMATNKERLFAAGALGPGSGYPGAGFPFAFPGALRGSPPFEMLSPSFRGLGQPDLPKEMASLSVETQSTSSEEMVPSSPSPPPPPRVYKPCFVCNDKSSGYHYGVSSCEGCKGFFRRSIQKNMVYTCHRDKNCIINKVTRNRCQYCRLQKCFEVGMSKEAVRNDRNKKKKEVKEEGSPDSYELSPQLEELITKVSKAHQETFPSLCQLGKYTTNSSADHRVQLDLGLWDKFSELATKCIIKIVEFAKRLPGFTGLSIADQITLLKAACLDILMLRICTRYTPEQDTMTFSDGLTLNRTQMHNAGFGPLTDLVFAFAGQLLPLEMDDTETGLLSAICLICGDRMDLEEPEKVDKLQEPLLEALRLYARRRRPSQPYMFPRMLMKITDLRGISTKGAERAITLKMEIPGPMPPLIREMLENPEMFEDDSSQPGPHPNASSEDEVPGGQGKGGLKSPA
notes: mature; FLAG-RARγ cDNA cloned in frame into pGex-2T, expressed in bacteria, purified on glutathione sepharose 4B; also called RARγ-glutathione transferase fusion protein; glutathione transferase-RARγ; not shown: glutathione S-transferase encoded by the expression vector pGEX-2T (Pharmacia); vector linker not described
